Experimental data published in IntAct's records for PubMed 24793649.

B1: CRISPR-associated endonuclease Cas1 (Escherichia coli (strain K12)), Q46896 (parent)
chain: MTWLPLNPIPLKDRVSMIFLQYGQIDVIDGAFVLIDKTGIRTHIPVGSVACIMLEPGTRVSHAAVRLAAQVGTLLVWVGEAGVRVYASGQPGGARSDKLLYQAKLALDEDLRLKVVRKMFELRFGEPAPARRSVEQLRGIEGSRVRATYALLAKQYGVTWNGRRYDPKDWEKGDTINQCISAATSCLYGVTEAAILAAGYAPAIGFVHTGKPLSFVYDIADIIKFDTVVPKAFEIARRNPGEPDREVRLACRDIFRSSKTLAKLIPLIEDVLAAGEIQPPAPPEDAQPVAIPLPVSLGDAGHRSS
partner: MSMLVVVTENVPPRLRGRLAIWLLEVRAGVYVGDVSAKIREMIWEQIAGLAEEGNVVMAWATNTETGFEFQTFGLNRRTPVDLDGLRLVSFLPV

Variants of: B1
Details: with cas2_ecoli ygbF

Variant	effect of a mutation on the interaction
MTWLPLNPIPLKDRVSMIFLQYGQIDVIDGAFVLIDKTGIRTHIPVGSVACIMLEPGTRVSHAAVRLAAQVGTLLVWVGEAGVRVYASGQPGGARSDKLLYQAKLALDEDLRLKVVRKMFELRFGEPAPARRSVEQLRGIEGSRVRATYALLAKQYGVTWNGRRYDPKDWEKGDTINQCISAATSCLYGVTEAAILAAGYAPAIGFVHTGKPLSFVYDIADIIKFDTVVPKAFEIARRNPGEPDREVRLACEDIFRSSKTLAKLIPLIEDVLAAGEIQPPAPPEDAQPVAIPLPVSLGDAGHRSS [R252E]	disrupting interaction strength
